Reference: US20160108416

What was measured:
atToc159 (At4g02510) = atToc159 (At4g02510) (UniProt O81283)
atToc33 (At1g02280) = molecular target: T1, atToc33 (At1g02280) (UniProt O23680)
T1 sequence: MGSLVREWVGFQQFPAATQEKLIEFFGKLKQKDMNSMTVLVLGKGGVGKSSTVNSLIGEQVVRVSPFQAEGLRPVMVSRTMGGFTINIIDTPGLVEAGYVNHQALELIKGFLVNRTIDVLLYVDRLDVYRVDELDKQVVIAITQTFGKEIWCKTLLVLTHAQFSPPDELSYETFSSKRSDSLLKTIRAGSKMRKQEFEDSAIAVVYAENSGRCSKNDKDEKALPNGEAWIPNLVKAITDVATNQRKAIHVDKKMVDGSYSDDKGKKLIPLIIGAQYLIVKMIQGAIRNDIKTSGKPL

atToc75-III (At3g46740) = molecular target: T2, atToc75-III (At3g46740) (UniProt Q9STE8)
T2 sequence: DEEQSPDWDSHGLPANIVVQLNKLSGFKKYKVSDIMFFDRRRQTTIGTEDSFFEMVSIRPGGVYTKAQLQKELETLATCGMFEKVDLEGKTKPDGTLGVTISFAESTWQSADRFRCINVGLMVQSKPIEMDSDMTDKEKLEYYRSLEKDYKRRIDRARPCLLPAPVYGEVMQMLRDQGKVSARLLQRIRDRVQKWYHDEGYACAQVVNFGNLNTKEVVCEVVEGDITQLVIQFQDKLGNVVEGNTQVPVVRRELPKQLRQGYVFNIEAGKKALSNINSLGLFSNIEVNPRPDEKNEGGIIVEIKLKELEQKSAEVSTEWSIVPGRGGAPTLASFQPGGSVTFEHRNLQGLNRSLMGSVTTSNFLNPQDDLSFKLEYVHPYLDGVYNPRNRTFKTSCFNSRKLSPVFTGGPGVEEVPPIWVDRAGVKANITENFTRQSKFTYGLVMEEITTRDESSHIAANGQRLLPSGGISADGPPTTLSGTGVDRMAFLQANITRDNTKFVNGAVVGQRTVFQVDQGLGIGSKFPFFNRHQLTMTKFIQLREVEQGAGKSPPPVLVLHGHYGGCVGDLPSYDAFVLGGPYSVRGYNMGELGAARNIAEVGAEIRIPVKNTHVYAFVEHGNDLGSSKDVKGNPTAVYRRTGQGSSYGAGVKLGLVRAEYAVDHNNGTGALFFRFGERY

Chain of UniProt O81283 (O81283 whole entry): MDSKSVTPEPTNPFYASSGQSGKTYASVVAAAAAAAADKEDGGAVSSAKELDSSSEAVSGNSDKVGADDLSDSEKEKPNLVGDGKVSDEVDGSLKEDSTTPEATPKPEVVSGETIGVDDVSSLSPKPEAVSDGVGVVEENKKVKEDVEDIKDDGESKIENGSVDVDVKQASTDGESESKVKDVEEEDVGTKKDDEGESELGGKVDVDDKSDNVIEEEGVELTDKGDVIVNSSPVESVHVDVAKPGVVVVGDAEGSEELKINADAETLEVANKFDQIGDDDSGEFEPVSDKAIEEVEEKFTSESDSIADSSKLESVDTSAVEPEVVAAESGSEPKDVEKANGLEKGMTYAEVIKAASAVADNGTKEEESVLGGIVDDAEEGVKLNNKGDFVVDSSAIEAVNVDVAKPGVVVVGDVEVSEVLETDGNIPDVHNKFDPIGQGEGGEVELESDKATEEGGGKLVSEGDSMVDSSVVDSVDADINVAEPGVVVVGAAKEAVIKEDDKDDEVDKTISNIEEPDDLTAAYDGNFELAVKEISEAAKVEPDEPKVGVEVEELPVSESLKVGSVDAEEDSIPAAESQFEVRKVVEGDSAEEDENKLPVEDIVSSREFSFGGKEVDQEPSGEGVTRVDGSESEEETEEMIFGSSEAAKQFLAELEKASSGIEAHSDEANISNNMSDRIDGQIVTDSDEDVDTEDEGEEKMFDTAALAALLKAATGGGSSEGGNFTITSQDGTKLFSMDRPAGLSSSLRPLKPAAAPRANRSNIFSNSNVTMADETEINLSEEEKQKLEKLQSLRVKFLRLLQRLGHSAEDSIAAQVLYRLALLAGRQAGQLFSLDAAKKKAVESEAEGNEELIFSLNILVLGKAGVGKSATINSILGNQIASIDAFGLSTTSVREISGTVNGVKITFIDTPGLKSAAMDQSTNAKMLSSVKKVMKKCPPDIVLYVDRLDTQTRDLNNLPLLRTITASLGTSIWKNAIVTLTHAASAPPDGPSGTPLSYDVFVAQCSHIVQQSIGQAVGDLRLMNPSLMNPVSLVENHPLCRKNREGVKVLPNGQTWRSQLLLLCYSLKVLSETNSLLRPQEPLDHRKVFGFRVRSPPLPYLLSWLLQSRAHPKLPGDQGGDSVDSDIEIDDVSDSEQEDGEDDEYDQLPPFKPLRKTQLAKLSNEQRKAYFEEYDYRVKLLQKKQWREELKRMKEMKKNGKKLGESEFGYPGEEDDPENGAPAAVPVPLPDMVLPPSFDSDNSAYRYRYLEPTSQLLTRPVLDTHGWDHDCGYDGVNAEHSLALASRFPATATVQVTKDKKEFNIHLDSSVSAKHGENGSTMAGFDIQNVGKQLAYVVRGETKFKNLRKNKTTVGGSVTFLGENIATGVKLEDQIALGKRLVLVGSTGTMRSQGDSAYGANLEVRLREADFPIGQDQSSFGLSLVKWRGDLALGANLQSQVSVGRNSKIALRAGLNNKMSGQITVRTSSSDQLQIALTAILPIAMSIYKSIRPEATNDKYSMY

B1: GST-SP1flex (SP1 intermembrane space and cytosolic domains joined by a flexible linker, N-terminal GST tag) (enzyme, part only; not given: N-terminal GST tag)
chain, part: RSSGRDAEVLETVTRVNQLKELAQLLELDSKILPFIVAVSGRVGSETPIKCEHSGIRGVIVEETAEQHFLKHNETGSWVQDSALMLSMSKEVPWFLDDGTSRVHVMGARGATGFALTVGSEVFEESGRSLVRGTLDYLQGLKMLGVKRIERVLPTGIPLTIVGEAVKDDIGEFRIQKPDRGPFYVSSKSLDQLISNLGKWSRLYKIDSVLERRRRRQLQKRVLDAAAKRAELESEGSNGTRESISDSTKKEDAVPDLCVICLEQEYNAVFVPCGHMCCCTACSSHLTSCPLCRRRIDLAVKTYRH
- In vitro ubiquitination (high-molecular-weight species of radiolabelled substrate) (atToc159 (At4g02510)): for each TOC substrate the extent of ubiquitination was enhanced in the presence of SP1
- In vitro ubiquitination (high-molecular-weight species of radiolabelled substrate) (atToc33 (At1g02280)): for each TOC substrate the extent of ubiquitination was enhanced in the presence of SP1
- In vitro ubiquitination (high-molecular-weight species of radiolabelled substrate) (atToc75-III (At3g46740)): for each TOC substrate the extent of ubiquitination was enhanced in the presence of SP1
